Patent US20100158968A1 (PURDUE RESEARCH FOUNDATION, published 2010)

Target: mitogen-activated protein kinase-activated protein kinase 2 (human MK2) (human, UniProt P49137 46-400, limits assumed)
Test: cell-based or functional assay

Chain of mitogen-activated protein kinase-activated protein kinase 2 (human MK2) (P49137 46-400 limits assumed): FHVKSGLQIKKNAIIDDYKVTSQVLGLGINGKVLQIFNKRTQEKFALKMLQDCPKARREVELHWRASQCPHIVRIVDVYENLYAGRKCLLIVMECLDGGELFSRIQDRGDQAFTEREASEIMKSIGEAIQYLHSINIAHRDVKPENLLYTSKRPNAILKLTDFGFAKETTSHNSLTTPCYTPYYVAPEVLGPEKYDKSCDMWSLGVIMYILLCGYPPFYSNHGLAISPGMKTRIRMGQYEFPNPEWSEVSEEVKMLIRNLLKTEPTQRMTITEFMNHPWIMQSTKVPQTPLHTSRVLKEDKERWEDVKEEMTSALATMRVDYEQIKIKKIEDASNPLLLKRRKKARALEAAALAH

IC50 (radiometric kinase assay), fold lower than the therapeutic inhibitor peptide incorporating the PTD peptide … [SEQ ID NO: 5]: > 30 fold
Binder: WLRRRIKAWLRRIKALNRQLGVAA
